This is an account of results in the nanobody polyreactivity screen of Harvey et al. (2022).

This data set in a line: yeast display, Sf9 membrane polyspecificity reagent, FACS + sequencing; frameworks hold sequencing errors. Put shortly:
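Nanobodies from a synthetic yeast display library (Saccharomyces cerevisiae BJ5465), induced 36–48 hours with galactose, were stained 1 hour at 4 °C with 10% biotinylated, detergent-solubilized Sf9 membrane reagent, enriched on streptavidin microbeads, then FACS-sorted. Anti-HA (expression) and streptavidin (reagent binding) fluorescence set low and high (top ~1%) gates. Polyreactivity labels come from the gate of origin. Genes were colony-PCR amplified, MiSeq 2 × 250 sequenced and filtered by CDR length.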
As to “QVQLVESGGGLVQAGGSLRISCAASGRIFGANAMGWYRQAPAKERELVAAITSSGGNTYYADSVKGRFTISRDNAKNTVYLQMNCLKPEDTAVYYWSARSRWVSYNYWGQGTQVTVSS”, the “polyreactivity (PSR sort gate)” value is listed as “high polyreactivity”.
With “QVQLVESGGGLVQAGGSLRLSCAASGITFGWYAMGLYRQAPGKERELVAAISTGSSTYYADSVKGRFTISRDNAKNTVYLQMNSLKPEDTAVYYCNAYPGPSGTLYVTPYDYWGQGTQVTVSS”, the “polyreactivity (PSR sort gate)” value is on record as “high polyreactivity”.
On to “QVQLVESGGGLVQAGGSLRLSCAASGRIFSEYAMGWYRQAPGKERELVAAISKSGGRTYYADSVKGRFTISRDNAKNTVYLKMNSLKPEDTAVYYCNARAVYPAGYAYDYWGQGTQVTVSS”, for which the “polyreactivity (PSR sort gate)” value is reported as “high polyreactivity”.
Turning to “QVQLVESGGGLVQAGGSLRLSCAASGSTFGNNTMGWNRQSPGKEREFVAAITESGGGTYADSVKGRFTISRDNAKNTVYLQLNSLKPEDTAVYYCAAVWYIWPFAFYDWAQGTQVTVSS”, the “polyreactivity (PSR sort gate)” value is listed as “high polyreactivity”.
Turning to “QVQLVETGGGLVQAGGSLRLSCAASGIIFDVYAMGWYRPAPGKERELVAAISYGGGTTYYADSVKGRFTISRDNAKNTVYLQMNSLKPEDTAVYYCAADSYRSIGDDYWGQGTQVTVSS”, the “polyreactivity (PSR sort gate)” value is given as “high polyreactivity”.
On to “QVQLVESGGGLVQAGGSLRLSCAASGRTFAGNAMGWYRQAPGKERELVAGISSGGSTNNADSVKGRFTSTRDNAKNTVYLQMNSLNPEDTAVYYCAKRYFRKGYPLFQYAYGYWGQGTQVTLSS”, for which the “polyreactivity (PSR sort gate)” value is “high polyreactivity”.
As for “QVQLVESGGGLVQAGGSLRLSCAASGSIFAPNAMGWYRQAPGKERELVAAITLSGGSRYYADSVKGRFTISREIAMNNVYLQMNSLKPEDTAVYYCNADLLPADAPLWVTGGDYWGQGTQVTVSS”, the “polyreactivity (PSR sort gate)” value is given as “low polyreactivity”.
In the case of “QVQLVESGGGLVQAGGSLRLSCAASGRIFDFYAMGWYSQAPGKERELVAAIASSVGNTYYADSVTGRFTISRDNAKNTVSLQMISLKPEDTAVYYCADYSYVRSSYEVEYDYWGQGTQVTVSS”, the “polyreactivity (PSR sort gate)” value was “low polyreactivity”.
Take “QVQLVESGPGLVQAGGSLRLSCAASGSTFAPYALGWYRQAPGIEMELVAAIRSSGGSTYYADSVKGGFTISRDNAKNTVYLQMNSLKPEDTAVYYCADDYYTSADYVDYYYWGQGTQVTVSS”: the “polyreactivity (PSR sort gate)” value is “low polyreactivity”.
In the case of “QVQLVESGGGLVQAGGSLLLSCSASGRNFRANAMGWYRQAHRKERELVAAITSTGDRTYYADSVKGRFTISRDNAKNTVYLQMNSLKQEDTAVYYCAAENNRYGGYRKYDYWGLGTQVTVSS”, the “polyreactivity (PSR sort gate)” value is given as “low polyreactivity”.
With “QVQLVESGGGLVQAGGSLRLSCAASGFIFGYNAMGWYRQAPGKERELVAAITRGGITYYADSVKGRFTISRDNAKYTVYLQMNSLKPEDTAVYYCASDWSVVYTDYDSWGHGTQVTVSS”, the “polyreactivity (PSR sort gate)” value is listed as “low polyreactivity”.
With “QVQLVESGGGLVQAGGSLRLSCAASGRTFYGYAMGRYRQAPGKERELVAAISSGGSTYYADSVKGRFTISRDNAKNTVYLQMNSLKPEDTAVYDCAAVKWRRHGGSSEYDYWGQGTQVTVSS”, the “polyreactivity (PSR sort gate)” value is “high polyreactivity”.
For the sequence “QVQLVESGGCLVQAGGSLRLSCAASGRIFGYYAMGWYRQEPWKERELVAAISYSGGTTYYADSVKGRFTISRDNAKNTVYLQMNSLKPEDTAVYYCAAESYTYYADYGYGYWGQGTQVSVSS”, the “polyreactivity (PSR sort gate)” value is “high polyreactivity”.
As for “QVQLVESGGGLVQAGGSLRLSCAASGSIFIYNAMGWYRPAPGKETEFVDTINSGTVTKYADSVKGRFTISRDNAKNTVYLQMNSLKPEDTAVYYCATVFDRQYSTQYQVSRYDYWVQGTQVTVSS”, the “polyreactivity (PSR sort gate)” value is “low polyreactivity”.
As for “QVQLVESGGGLVQAGGSLRLSCAAAGRLFGPYAMGWYGQAPGKERELVASISYSGGSTYYADSVKGRFTISRDNAKNTVYLQMNSLKAEDTAVYYCAKGGYWRGYNYWGQGTQVTVSS”, the “polyreactivity (PSR sort gate)” value is reported as “low polyreactivity”.
In the case of “QVQLVESGGGLVQAGGSLRLSCAASGRILGNNVMGWYRQAPGKERELVAAITSSGGRTYYADSVKGRFTISRDNAKNTVYLQMNSLKPVDTAVYYCAAERRYYGKFNYWGQGTQVTVSS”, the “polyreactivity (PSR sort gate)” value is “high polyreactivity”.
For the sequence “QVQLVESGGGLVQAGGSLRLSCAASGRTFGYYAMGWYRQAPGKERELVAAISGSGGSTYYADSVKGRFTISRDNAKNTVYLQMKSLKPEDTAVYYCNVYPPYAMDYWGQGTQVTVSS”, the “polyreactivity (PSR sort gate)” value is listed as “high polyreactivity”.
“QVQLVESGGGLVQAGRSLRLSCAASGFIYPYNALGWYRQAPGKERELVAGITWRGASTYYADSVKGRFTISRDNAKNSVYLQMNRLKPEDTAVDYCAAAYRRVTTKTFKLDYWGQGTQVTVSS”: the “polyreactivity (PSR sort gate)” value was “high polyreactivity”.
Consider “QVQLVESGGGLVQAGGSLRLSCADSGFIFTVNAMGWYRQAPGKERELVAAITSGGNTYYADSVKGRFTISRDNAKNTVYLQMNSLKPEDAAVYYCNAVFYTWSPYGTTVRSYGYWGQGTQVTVSS”, for which the “polyreactivity (PSR sort gate)” value is on record as “high polyreactivity”.
As to “QVQLVESGGGLVQAGGSLRLSCAASGGIFGYYAMAWYRQAPGKEREFVAAITLSGGRSYYADSVKGRFTISRDNAKNTVYLQMNSLKPEDTAVYYCNAYPYYLVRNMDSWGQGTQVTVTS”, the “polyreactivity (PSR sort gate)” value is “high polyreactivity”.
For “QVQLVESGGGLVQAGGSLRLSCAASGRTFDPNAMGWYRQAPGKERELVAAISGRGTSTYYADSVKGRFTISRDDAKNTVYLQMNSLKPEDTAVYYCAKAGAGESIAKYDYWGQGTQVTVSS”, the “polyreactivity (PSR sort gate)” value is reported as “low polyreactivity”.
In the case of “QVQLVESGGGLVQAGGSLRLSCAASGIIFYTNAMGWYRQAPGKEREFVAAINTSGGITYYADSVKGRFTISRDNAKNTVYLQMNSLKPEDTAVYYCAADQTYERHWVYYWGQGTQVTVSS”, the “polyreactivity (PSR sort gate)” value is on record as “low polyreactivity”.
For “QDQLVESGGGLVQAGGSLRLSCAASGRIISLYAMGWYRQAPVKERDLVAAISRRSGNTNYADSVKGRFTISRDNAKNTVYLQMNSLKPEDTAVYYCAARPGAISSTSPYDYWGQGTQVTVSS”, the “polyreactivity (PSR sort gate)” value is reported as “high polyreactivity”.
With “QVQLVESGGGLVQAGGSLRLSCAASGSIYRYAMGWYRQAPGKERELVAAINFNGGRTYYADSVKGRFTISRDNAKNTVYLQMNSLKPEDTAVYYCAAVRSSNQGGFDYWGHGTQVTVSS”, the “polyreactivity (PSR sort gate)” value was “high polyreactivity”.
To “QVQLVESGGGLVQAGGSLRLSCAASGRTLRYYAMGWYRQAPGTERELVASISIGGSTYYADSVKGRFTISRDNAKNTVYLQMHSQKPEATAVYYCATDYSTSGYGYWGQGTQVTVST” belongs “low polyreactivity”.
On to “QVQLVESGGGLVQAGGSLRLSCAASGFTFSYYAKGWYRQAPGKERELVARISFSGTRTYYADSVKGRFTISRDNAKKTVYLQMKSLKPEDTAVSYWARRPGAWKYVYSGDYWGQGTQVTVSS”, for which the “polyreactivity (PSR sort gate)” value is on record as “high polyreactivity”.
As for “QVQLEESGGGLVQAGGSLRLSCAASGLISVWYVMGWYRQAPGKERELVAAIRYGGGRTYYADSVKGRFTISRDNAKNTVYLQMNSLKPEDTAVYYCNARPYRGTYGYWGQGTQVTVSS”, the “polyreactivity (PSR sort gate)” value is given as “high polyreactivity”.
Take “QVQLVESGGGLVQAGGSLRLSCAASVSTFDDNAMGWYIQAPGKERELVASITYRGGSTYYADSVKGRFTISRDNAKNTVYLQMNSLKPEDTAVYYCNADYTGAEYDYWGQGTQVTVSS”: the “polyreactivity (PSR sort gate)” value is “low polyreactivity”.
Take “QVQLVESGGGLVQAGGSLRLSCAASGRTFIRYAMAWYRQAPGKGRELLAANNWSGSTYYADSVKGRFTISRDNAKNTVYVQINSLKPEDTAVYYCAAYPYGVTNAYGSWGQGTQVTVSS”: the “polyreactivity (PSR sort gate)” value is listed as “high polyreactivity”.
Turning to “QVQIVESGGGLVQAGGSLRLSCAASGRIFGAYGMGWYRQAPGKERELVAAISNGGRTSYADSVKGRFTISRDNAKNTVYLQMNSLKPEDTAVYYCAAVYWQWYGAYDYWGQGTQVTVSS”, the “polyreactivity (PSR sort gate)” value is reported as “high polyreactivity”.
In the case of “QVQLVESGGGLVQAGGSLRLSCAASGSTFGSYAMGWYRQAPGKERELVADISSRGASTYYADSVKGRFTISRDNAKNTVYLQMNSLKPEDTAVYYCARDVYIWYGYGYFPEYEYWGQGTQVTVSS”, the “polyreactivity (PSR sort gate)” value is given as “low polyreactivity”.
To “QVQLVESGGGLVQAGGSLRLSCAASGSIFITYAMGWYRQAPGKERELVAAIRDSGDRTYYADSVKGRFTISRDNAKNTVYLQMNSLKPEDTAVYFCNARWQEPLKYDYWGQGTQVTVSS” belongs “low polyreactivity”; to “QVQLVESGGGVVQAGGSLRLSCAASGSTFRTNAMGWYRQAPGKERELVAAITSTGGSTYYADSVKGRFTISRDNAKNTVYLQMNSLKPEDTAVYYCAAYYVPGYYYWGQGTQVTVSS”, “high polyreactivity”.
Consider “QVQLVESGGGLVQAGGSLRLSCAASGRTFYHYTMGWSSQAPGKERELVARITRRVGSTYYADSVKGRFTISRDNTKNTVYLQMNSLKPEDTAVYYCNAKSGVYRYLLDYWGQGTQVTVTS”, for which the “polyreactivity (PSR sort gate)” value is recorded as “high polyreactivity”.
On to “QVQLVESGGGLVQAGGSLRLSCAASGITFFLYAMGWYRQAPGKERELVAVISASGGSTYYADSVKGRFTISRDNAKNTVYLQMNSLKPEDTAVYYCAAGYRFYGFYAHDYWGQGTQVTVSS”, for which the “polyreactivity (PSR sort gate)” value is reported as “high polyreactivity”.
Turning to “QVQLVESGGGLVQAGGSLRLSCAASGSTFYLYARGWFSQAPGKVRELGAAIRTSGGSTYYADSGKGRFTISRDTAKNTVYLQMNSLKPEDTAVYSCTAAWPYNSVEYWGQGTQVTVSS”, the “polyreactivity (PSR sort gate)” value was “low polyreactivity”.
Consider “QVQLVESGGGLVQAGGRLRLSCAASGFIVDDNTIGWYRQAPGKEREVFAAISYSAGSTYYADSVKGRFTISRDNAKNTVYFQLNSLKPEDTAVYYCAAQHYWVTCYLSSYDYWGQGTQVSVSS”, for which the “polyreactivity (PSR sort gate)” value was “low polyreactivity”.
To “QVQLVESGGGLVQAGGSLRLSCAASGITFNSYAMGWYRQAPGKERELVAAITLTGGTTYYADSVKGRFTISRDNAKNTVYLQMNSLKPEDTAVYYCAAQYWWWSRFEYDSWGQGTQVTVSS” belongs “low polyreactivity”; to “QVQLVESGGGLVQAGGSLRLSCAASGSIFSFYAMGGYRQPPGKEREFVATITYGSGSTHYADSVKGRFTISRDNAKITVYLQLNSLKPEDTAVYYCAAETVRYEWGESPAALFDYWGQGTQVTVSS”, “low polyreactivity”.
Turning to “KVQLVEAGGGLVQAGGSLRLSCAASGFILIYYAMGWYRQAPGKERELFAAITWSGGSTYYADSVKGRFTISRDNEKNTVYLKMNTLKQEETAVDYCAAYVGGGDSNADHDYWGQGTQVTVSA”, the “polyreactivity (PSR sort gate)” value is on record as “low polyreactivity”.
As for “QVQLVESGAGLVQAGGSLRLSCAASGLTFIYNAMVWYRQAPGKERELVAAISGNGGDTYYADSVKGRFTLSRDNAKNTVYLQMNSLKPEDTAVYYCAADYAYTPITCDEYWGQGTKVTVSS”, the “polyreactivity (PSR sort gate)” value is on record as “low polyreactivity”.
